Source: PMC3656109

How the values were obtained:
[1] = target: KSHV gH (V5 epitope-tagged)/gL complex (Kaposi's sarcoma-associated herpesvirus (KSHV, HHV-8)) (UniProt F5HAK9)
[2] = target: RRV 26-95 gH (V5 epitope-tagged)/gL complex (rhesus monkey rhadinovirus (RRV) strain 26-95)

UniProt F5HAK9, sequence (F5HAK9 whole entry, looked up, one chain of several): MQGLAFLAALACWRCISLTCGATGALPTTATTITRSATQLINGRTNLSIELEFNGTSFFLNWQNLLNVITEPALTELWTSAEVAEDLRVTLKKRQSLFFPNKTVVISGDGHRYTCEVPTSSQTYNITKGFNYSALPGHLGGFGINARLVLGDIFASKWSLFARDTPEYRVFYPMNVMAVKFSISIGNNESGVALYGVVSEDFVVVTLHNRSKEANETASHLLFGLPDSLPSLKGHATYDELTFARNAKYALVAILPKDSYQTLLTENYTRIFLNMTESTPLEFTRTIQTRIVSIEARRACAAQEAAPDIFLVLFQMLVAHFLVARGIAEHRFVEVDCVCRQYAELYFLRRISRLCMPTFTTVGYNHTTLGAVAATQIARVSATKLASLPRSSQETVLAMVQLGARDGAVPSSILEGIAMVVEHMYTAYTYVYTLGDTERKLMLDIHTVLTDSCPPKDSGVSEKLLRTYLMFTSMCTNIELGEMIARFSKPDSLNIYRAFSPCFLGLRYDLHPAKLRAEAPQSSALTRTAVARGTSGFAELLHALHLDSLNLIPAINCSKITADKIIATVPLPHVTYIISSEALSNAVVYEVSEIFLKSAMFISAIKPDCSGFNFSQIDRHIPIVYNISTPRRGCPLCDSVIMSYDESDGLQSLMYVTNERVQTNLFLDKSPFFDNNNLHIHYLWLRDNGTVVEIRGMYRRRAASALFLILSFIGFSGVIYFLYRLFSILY

EphA7-Fc (from UniProt Q15375 28-555) (Fc fusion)
entry of KSHV into rhesus fibroblasts after pre-incubation of the virus with EphA7-Fc (1 to 20 µg/ml; no block at 1 µg/ml, value at 20 µg/ml) [1]: -35%

B1: EphA1-Fc (Fc fusion)
chain: KEVTLMDTSKAQGELGWLLDPPKDGWSEQQQILNGTPLYMYQDCPMQGRRDTDHWLRSNWIYRGEEASRVHVELQFTVRDCKSFPGGAGPLGCKETFNLLYMESDQDVGIQLRRPLFQKVTTVAADQSFTIRDLVSGSVKLNVERCSLGRLTRRGLYLAFHNPGACVALVSVRVFYQRCPETLNGLAQFPDTLPGPAGLVEVAGTCLPHARASPRPSGAPRMHCSPDGEWLVPVGRCHCEPGYEEGGSGEACVACPSGSYRMDMDTPHCLTCPQQSTAESEGATICTCESGHYRAPGEGPQVACTGPPSAPRNLSFSASGTQLSLRWEPPADTGGRQDVRYSVRCSQCQGTAQDGGPCQPCGVGVHFSPGARGLTTPAVHVNGLEPYANYTFNVEAQNGVSGLGSSGHASTSVSISMGHAESLSGLSLRLVKKEPRQLELTWAGSRPRSPGANLTYELHVLNQDEERYQMVLEPRVLLTELQPDTTYIVRVRMLTPLGPGPFSPDHEFRTSPPVSRGLTGGE
entry of KSHV into rhesus fibroblasts after pre-incubation of the virus with EphA1-Fc (1 to 20 µg/ml; no block at 1 µg/ml, value at 20 µg/ml) [1]: -22%

B2: EphB3-Fc (Fc fusion)
chain: GCRALEETLMDTKWVTSELAWTSHPESGWEEVSGYDEAMNPIRTYQVCNVRESSQNNWLRTGFIWRRDVQRVYVELKFTVRDCNSIPNIPGSCKETFNLFYYEADSDVASASSPFWMENPYVKVDTIAPDESFSRLDAGRVNTKVRSFGPLSKAGFYLAFQDQGACMSLISVRAFYKKCASTTAGFALFPETLTGAEPTSLVIAPGTCIPNAVEVSVPLKLYCNGDGEWMVPVGACTCATGHEPAAKESQCRPCPPGSYKAKQGEGPCLPCPPNSRTTSPAASICTCHNNFYRADSDSADSACTTVPSPPRGVISNVNETSLILEWSEPRDLGGRDDLLYNVICKKCHGAGGASACSRCDDNVEFVPRQLGLTERRVHISHLLAHTRYTFEVQAVNGVSGKSPLPPRYAAVNITTNQAAPSEVPTLRLHSSSGSSLTLSWAPPERPNGVILDYEMKYFEKSEGIASTVTSQMNSVQLDGLRPDARYVVQVRARTVAGYGQYSRPAEFETTSERGSGAQQLQEQLPL
decrease in nuclear accumulation of the RRV genome in HUVEC four hours post infection (real-time PCR) in the presence of 5 µg/ml EphB3-Fc [2]: 74%
